Test results reported in patent US20240343817A1 (STAIDSON BEIJING BIOPHARMACEUTICALS, published 2024).

T1: human TNFRSF11A (human, UniProt Q9Y6Q6 30-212)
T1 construct: Bought protein coated on the ELISA plate; also called TNFRSF11A (Sino biological, 16078-h08h)
T1 sequence (looked up): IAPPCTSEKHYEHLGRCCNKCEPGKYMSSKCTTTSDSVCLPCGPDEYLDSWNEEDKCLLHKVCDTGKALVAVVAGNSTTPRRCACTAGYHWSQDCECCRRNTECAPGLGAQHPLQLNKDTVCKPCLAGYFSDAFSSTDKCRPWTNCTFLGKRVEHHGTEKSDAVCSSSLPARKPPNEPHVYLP

T2: human TNFR2 (human, UniProt P20333 23-257)
T2 construct: Bought protein coated on the ELISA plate; also called TNFR2 (Sino biological, 10417-h08h); INFR2
T2 sequence (looked up): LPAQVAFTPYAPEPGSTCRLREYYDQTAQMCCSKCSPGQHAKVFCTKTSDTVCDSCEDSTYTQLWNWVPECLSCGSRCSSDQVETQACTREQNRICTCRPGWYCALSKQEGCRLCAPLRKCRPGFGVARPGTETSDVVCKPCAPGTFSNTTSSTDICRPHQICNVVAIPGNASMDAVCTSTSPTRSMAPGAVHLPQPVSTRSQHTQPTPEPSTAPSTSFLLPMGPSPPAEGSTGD


What was measured:
[1] = target: T3, human CD40 on cells (human, UniProt P25942 21-277); assay: cell-based or functional assay
T3 sequence (P25942 21-277 limits assumed): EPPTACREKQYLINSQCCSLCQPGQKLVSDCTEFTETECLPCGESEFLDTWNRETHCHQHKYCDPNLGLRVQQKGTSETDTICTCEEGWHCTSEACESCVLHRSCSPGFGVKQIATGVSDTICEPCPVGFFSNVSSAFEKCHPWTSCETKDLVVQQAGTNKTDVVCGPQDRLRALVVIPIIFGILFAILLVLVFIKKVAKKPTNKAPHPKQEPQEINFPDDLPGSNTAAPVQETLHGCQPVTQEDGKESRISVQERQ

[2] = target: human CD40 extracellular domain (recombinant) (human) (UniProt P25942); assay: SPR, Biacore 8K; antibody on CM5 chip, hCD40 at various concentrations
Sequence of human CD40 extracellular domain (recombinant) (human) (P25942 21-193): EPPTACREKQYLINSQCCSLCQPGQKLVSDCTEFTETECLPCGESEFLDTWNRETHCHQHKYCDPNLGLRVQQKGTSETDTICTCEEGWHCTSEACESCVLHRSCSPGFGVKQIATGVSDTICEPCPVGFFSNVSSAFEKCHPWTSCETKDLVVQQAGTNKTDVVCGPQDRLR

[3] = target: Rhesus monkey CD40 extracellular domain (recombinant) (Rhesus monkey) (UniProt F6SNI1); assay: ELISA; CD40 extracellular domain coated 0.1 µg/well, antibody titrated from 10 µg/mL 1:3, anti-human IgG-HRP
Sequence of Rhesus monkey CD40 extracellular domain (recombinant) (Rhesus monkey) (F6SNI1 entry or part of it): as the sequence (P25942 21-193) above, with G43S, H56R, W89L, T92M, A95S, L101P, S106L, H142R, L172Q counted along it

[4] = target: human CD40 extracellular domain (recombinant) (human) (UniProt P25942); assay: as above
[5] = target: human CD40 extracellular domain (recombinant) (human) (UniProt P25942); assay: ELISA, plate coated with recombinant human CD40 extracellular domain, antibody in serial dilution, anti-human IgG-HRP, OD450
[6] = target: Rhesus monkey CD40 extracellular domain (recombinant) (Rhesus monkey) (UniProt F6SNI1); assay: ELISA, plate coated with recombinant rhesus monkey CD40 extracellular domain, antibody in serial dilution, anti-human IgG-HRP, OD450
[7] = target: T4, human CD40 extracellular domain (recombinant) (human, UniProt P25942 21-193); assay: affinity assay not described (data not shown)
T4 construct: Extracellular domain expressed in 293F cells; also called hCD40; CD40-His; not shown: tag (His, Avi-His, mouse Fc or human Fc)
T4 sequence (P25942 21-193): as the sequence (P25942 21-193) above

[8] = target: T3, human CD40 on cells; assay: cell-based or functional assay; remark: listed apart in the source
[9] = target: T1, human TNFRSF11A; assay: ELISA; protein coated, antibody titrated, anti-human IgG-HRP
Protocol: (§1) The cross-reactivities between anti-CD40 antibodies and the protein homologous with CD40 were detected. It was well known that there is high sequence homology among TNFR superfamily members. When compared with CD40 sequence. TNFRSF11A (38.95% homology) and INFR2 (37.20% homology) are with the highest homology. The cross-reactions between the two proteins and anti-CD40 antibody were detected by ELISA. respectively. Briefly, human TNFRSF11A (Sino biological, 16078-h08h), human TNFR2 (Sino biological, 10417-h08h) or the human CD40 extracellular domain protein prepared in example 1 was coated on ELISA plate and incubated at 4° C. overnight, respectively. After serial dilution, the optimized full-length anti-CD40 antibodies were added into 96 well plates and incubated respectively. After washing with TBST solution, the anti-human IgG-HRP antibody was added and incubated at RT. After washing with PBST, TMB was added into each well for development. Plates were read for the absorbance at 450 nm.

[10] = target: T2, human TNFR2; assay: as above
Protocol: as §1

[11] = target: T4, human CD40 extracellular domain …; assay: SPR, Biacore 8K; antibody on CM5 chip, hCD40 at various concentrations
Protocol: The binding affinity of the optimized anti-CD40 antibodies with human […] was characterized using Biacore 8K (GE). Anti-CD4 (antibodies were stabilized on sensor chip CM5 The affinities for hCD40 at various concentrations were measured. Using the SPR technology, the association and dissociation rates were measured, and binding affinity was determined.

[12] = target: T4, human CD40 extracellular domain …; assay: ELISA, plate coated with recombinant human CD40 extracellular domain, antibody (human IgG4 format) in serial dilution, anti-human IgG-HRP, OD450
Protocol: (§2) ELISA Binding Assay: The selected monoclonal full-length antibodies D1, D2, D3, D5, D6, or D7 were subjected to binding assays with CD40 extracellular domain of different species, respectively. The assay was designed to identify full-length antibodies that cross-reacted with CD40 of different species. Briefly, the human or Rhesus monkey CD40 prepared in example 1 was dissolved in PBS and coated on […] with 0.1 μg/well followed by incubation at 4° C. overnight. The 96-well plates were washed with TBST before adding antibodies, blocked with 5% milk for 1-2 h at 37° C., and washed again with TBST. Firstly, each antibody sample was diluted to 10 μg/mL, and then serially diluted at a 1:3 ratio. 100 μL of serially diluted antibodies were added to each well and incubated for 1 h at 37° C. After washing with TBST for 6 times, 100 μL of the secondary antibody (goat anti-human IgG-HRP (Sigma. A8667)) was added to each well and incubated for 1 h at 37° C. After washing with TBST for 3 times, TMB was added with 100 μL/well and incubated for 10-20 minutes at 37° C. 2M H₂SO₄ was used to stop the reaction and plates were read for the absorbance at 450 nm. The ELISA results were then analyzed and the binding curves were generated by PRISM.
(§3) The biding affinity of the optimized full length CD40 antibodies with human or rhesus monkey CD40 was evaluated by Elisa according to the corresponding protocol as described in Example 2, and ASKP1240 was used as control.

[13] = target: T5, Rhesus monkey CD40 extracellular domain (recombinant) (Rhesus monkey, UniProt F6SNI1 21-193); assay: ELISA, plate coated with recombinant rhesus monkey CD40 extracellular domain, antibody (human IgG4 format) in serial dilution, anti-human IgG-HRP, OD450
T5 construct: extracellular domain; also called RheCD40
Protocol: as §2, §3

Row | Binder | IC50, HEK-Blue CD40L NF-κB activation assay (SEAP) [1] | IC50, HEK-Blue CD40L NF-κB activation assay (SEAP), Fc-3*G4S-CD40L stimulus [1] | Kd [2] | koff [2] | kon [2] | EC50 [3] | EC50 [4] | EC50 (read off the curve) [5] | EC50 (read off the curve) [6] | binding result [7] | IC50, HEK-Blue CD40L NF-κB activation assay (SEAP), antibody as human IgG4 [8] | binding result [9] | binding result [10] | Kd [11] | koff [11] | kon [11] | EC50 (read off the curve) [12] | EC50 (read off the curve) [13]
1 | D11 (antibody, IgG4, V domains shown, Humanized form of D1; recombined with human IgG constant regions (preferably IgG4 heavy chain and kappa light chain); also called humanized anti-CD40 antibody D11) VH: QVQLVQSGAEVKKPGASVKVSCKASVYSFTGYTVNWVRQAPGQRLEWMGLINPYNGGTTYNQKFKGRVTLTIDKSASTAYMELSSLRSEDTAVYYCASSYYSNPYAMDYWGQGTLVTVSS VL: EIVMTQSPATLSVSPGERATLSCKASQNVHTAVAWYQQKPGQAPRLLIYLASDRRTGIPARFSGSGSGTEFTLTISSLQSEDFAVYYCLQHWNYPLTFGQGTKVEIK | – | – | – | – | – | – | – | – | – | binds | – | – | – | – | – | – | – | –
2 | D33 (antibody, human IgG4, V domains shown, also called optimized anti-CD40 antibody D33) VH: QVQLVQSGAEVKKPGASVKVSCKASVYSFTGYTVNWVRQAPGQRLEWMGLINPLNGGTTYNQKFKGRVTLTIDKSASTAYMELSSLRSEDTAVYYCASSYYSTPYAMDYWGQGTLVTVSS VL: EIVMTQSPATLSVSPGERATLSCKASQNVHTRVAWYQQKPGQAPRLLIYLASDRRTGIPARFSGSGSGTEFTLTISSLQSEDFAVYYCLQHWNYPLTFGQGTKVEIK | – | – | – | – | – | – | – | – | – | – | 0.0122 µg/mL | no binding (tested: 10 µg/mL) | no binding (tested: 10 µg/mL) | 1.63 nM | 0.000494 s⁻¹ | 304000 M⁻¹ s⁻¹ | ~0.2 µg/mL | ~0.1 µg/mL
3 | D42 (antibody, V domains shown, also called optimized anti-CD40 antibody D42) VH: QVQLVQSGAEVKKPGASVKVSCKASVYSFTGYTVNWVRQAPGQRLEWMGLIVPYNGGTTYNQKFKGRVTLTIDKSASTAYMELSSLRSEDTAVYYCASSRYSNPYAMDYWGQGTLVTVSS VL: EIVMTQSPATLSVSPGERATLSCKASQNVHTRVAWYQQKPGQAPRLLIYLASDRRTGIPARFSGSGSGTEFTLTISSLQSEDFAVYYCLQHWNYPLTFGQGTKVEIK | – | – | – | – | – | – | – | – | – | – | 0.00962 µg/mL | no binding (tested: 10 µg/mL) | no binding (tested: 10 µg/mL) | 1.26 nM | 0.000277 s⁻¹ | 221000 M⁻¹ s⁻¹ | ~0.2 µg/mL | ~0.1 µg/mL

Further lines, results first:

Row | IC50, HEK-Blue CD40L NF-κB activation assay (SEAP) [1] | IC50, HEK-Blue CD40L NF-κB activation assay (SEAP), Fc-3*G4S-CD40L stimulus [1] | Kd [2] | koff [2] | kon [2] | EC50 [3] | EC50 [4] | EC50 (read off the curve) [5] | EC50 (read off the curve) [6] | binding result [7] | IC50, HEK-Blue CD40L NF-κB activation assay (SEAP), antibody as human IgG4 [8] | binding result [9] | binding result [10] | Kd [11] | koff [11] | kon [11] | EC50 (read off the curve) [12] | EC50 (read off the curve) [13] | Binder
4 | 0.0134 µg/mL | 0.0111 µg/mL | 2.07 nM | 0.000617 s⁻¹ | 298000 M⁻¹ s⁻¹ | 0.181 µg/mL | 0.211 µg/mL | 0.1 µg/mL | 0.1 µg/mL | – | – | – | – | – | – | – | – | – | ASKP1240 (antibody, INN chains, looked up, V domains shown, IgG4) VH: QLQLQESGPGLLKPSETLSLTCTVSGGSISSPGYYGGWIRQPPGKGLEWIGSIYKSGSTYHNPSLKSRVTISVDTSKNQFSLKLSSVTAADTAVYYCTRPVVRYFGWFDPWGQGTLVTVSS VL: AIQLTQSPSSLSASVGDRVTITCRASQGISSALAWYQQKPGKAPKLLIYDASNLESGVPSRFSGSGSGTDFTLTISSLQPEDFATYYCQQFNSYPTFGQGTKVEIK
5 | – | – | – | – | – | – | – | – | – | – | 0.0114 µg/mL | no binding (tested: 10 µg/mL) | no binding (tested: 10 µg/mL) | 1.59 nM | 0.000303 s⁻¹ | 191000 M⁻¹ s⁻¹ | ~0.2 µg/mL | ~0.1 µg/mL | D47 (antibody, human IgG4, V domains shown, also called optimized anti-CD40 antibody D47) VH: QVQLVQSGAEVKKPGASVKVSCKASVYSFTGYTVNWVRQAPGQRLEWMGLINPYTGGTTYNQKFKGRVTLTIDKSASTAYMELSSLRSEDTAVYYCASSYYSNPYASDYWGQGTLVTVSS VL: EIVMTQSPATLSVSPGERATLSCKASQNVHTRVAWYQQKPGQAPRLLIYLASDRRTGIPARFSGSGSGTEFTLTISSLQSEDFAVYYCLQHWTYPLTFGQGTKVEIK
